Measurements from US20070093415A1.
Like-named read-outs stand apart in the source and are kept apart here.

Experiments:
[1] = biological target: Aβ1-40 amyloid (amyloid form of the Aβ1-40 peptide); experiment: ELISA on immobilized Aβ1-40 amyloid, anti-Thio detection
[2] = biological target: Aβ1-40 amyloid (amyloid form of the Aβ1-40 peptide); experiment: as above; remark: listed apart in the source

Sequence of Thio (recombinant thioredoxin without the Aβ-peptide binding sequence) (P0AA25 2-109): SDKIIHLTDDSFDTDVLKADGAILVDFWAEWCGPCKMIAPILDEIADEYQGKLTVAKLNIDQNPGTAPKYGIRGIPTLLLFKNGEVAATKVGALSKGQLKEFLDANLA

## Thio (recombinant thioredoxin without the Aβ-peptide binding sequence) (from UniProt P0AA25 2-109)
[1]
  concentration below which no binding was seen: > 100 µM
[2]
  concentration below which no binding was seen: > 200 µM
